Assay results from the nanobody polyreactivity screen of Harvey et al. (2022).

Test: yeast display, Sf9 membrane polyspecificity reagent, FACS + sequencing; frameworks hold sequencing errors
Summary of the method: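 Nanobodies came from a synthetic yeast display library in Saccharomyces cerevisiae BJ5465, induced with galactose for 36–48 hours and stained for 1 hour at 4 °C with 10% biotinylated, detergent-solubilized Sf9 membrane reagent. Cells were enriched on streptavidin microbeads and then FACS-sorted, with low and high (top ~1%) gates set on anti-HA fluorescence for expression and streptavidin fluorescence for reagent binding. Each polyreactivity label reflects the gate a clone came from. Genes were amplified by colony PCR, sequenced by MiSeq 2 × 250 and filtered by CDR length.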

Row | Sequence | polyreactivity (PSR sort gate)
1 | QVQLVESGGGLVQAGGSLRLSCAASGLTIYPNAMGWYRQAPGKERELVAAITYSGDTYYADSVKGRFTISRDNAKNTVYLQMNSLKPEDTAVYYCATDVDWAYGYQYEYWGQGTQVTVSS | low polyreactivity
2 | QVQLVESGGGLVQAGGSLRLSCAASVFTFTRYVMGWYRQAPVKERELVAAISGSGGSTNYADSVKGRFTISRDNAKNTVYLQMNSLKPEDTVVYYCAARFVGSRYRFDYWGQRTQVTVSS | high polyreactivity
3 | QVQLEDSGGGLVQAGGSLRLSCAASGSTFILNAMGWYRDAPGKERELVATISSSDTSTYYADSVKGRFTISRDNAKNTVYLQMNSLKPEDTAVYYCNADYYTTSYLQRVYHYGVEYDYWGQGTQVTVSS | low polyreactivity
4 | QVQLVESGGGLVQAGGSLRLSCAASGLTFSRYAMGWYRQAPGKERELVAAISGSGGSTYYADSVKGRFTISRDNAKNTVYLQMNSLKPEDTAVYYCNKYRATNSARDYWGQGTQVTVSS | high polyreactivity
5 | QVQLVESGGGLVQAGGSLRLSCAASGSIFGWYAMGWYRQAPGKERELVAAISSSDGSTYYADSVKGRFTISRDNAKNTVYLQMNSLTPEDTAVYYCAKVYIRQNLAPYGYWGQGTQVTVSS | low polyreactivity
6 | QVQLVESGGGLVQAGGSLRLSCAASGRTFPYYAMGWYRQAPGKERELVAAITRGVRTHYADSVKGRFTISRDNAKYTVYLQMNSLKPEDTAVYYCAREDWGSYSDMDSWGQGTQVTVSS | low polyreactivity
7 | QVQLVESVGGLVQAGGSLRLSCAASGSTFVPYAMGWYRQAPGKERELVAAITTSGGNTYYADSVKGRFTISRDNAKNTVYLQMNSLKPEDTAVYYCAADTYRSFDYWGQGTQVTVSS | low polyreactivity
8 | QVQLVESAGGLVQAGGSLRLSCAASGIIFPVYAMGWYRQAPGKERELVAAITSSGGSTYYADSVKGRFTISRDNAKNTVYLQMNSLKPEDTAVYYFAAVRKSRFDYGGQGTQVTVSS | high polyreactivity
9 | QVQLQGSGGGLAQAGDSLRLSCAASGTIFSEYNNGLVSPGAGQRTRTCCRYWCWGNTYYADSAKGRFTTSRDNAKNTVYLQKNSLKPEDTAVYYCAFNRPYPSRHIYRGQGTQVTVSS | high polyreactivity
10 | QVQLVESGGGLVQAGGSLRLSFAASGRTFHGYAMGWYRQAPGKERELVARINWSDGRTYYADSVKGRFTISRDNAKNTVYLQMNSLKPEDTAVYYCAADKTVSYAPAWYYYWGQGTHVTVSS | low polyreactivity
11 | QVQIVESGGGLVQAGGSLRLSCAASGSIFTYNAMGWYRQAPGKERELVAAISYSGVRTYYADSVKGRFTISRDNAKNTVYLQMNRLKPVDTAVYYCNTRYPYSVLKYGYWGQGTQVTVSS | high polyreactivity
12 | QVQLVESGGGLVQAGGSLRLSCAASGSIFASNAMGWYRQAPGKERELVADISGTTGSTYYADSVKGRFTISRDNAKNTVYLQMNSLKPEDTAVYYCAADLVWVSTSYYYWGQGTLVTVSS | low polyreactivity
13 | QVQLVESGGGLVQAGGSLRLSCAASGRIFAYYVMGWYRQAPGKERELVAAITWSGTSTYYADSVKGRFTISRDNAKNTVYLQMNSLKPEDTAVYYCNAVWSRSTRGYDYWGQGTQVSVSS | high polyreactivity
14 | QVQLVESGGGLVQAGGSLRLSCAASGRIFRTNAMGWYRQAPGKERELVAAISDSGADTSYADSVKGRFTISRDNAKNTVYLQMNSLKPEDTAVYYCNRGRVYYRYLKDYDYWGQGTQVTVSS | low polyreactivity
15 | QVQLVESGGGLVQAGGSLRLSCAASGSTFWPYAMGWCRQAPGKERELVAAITWSGGRTYYADSVKGRFTISRDNAKNTVYLQMYSLKPEDTAVYYCAAYYRQGIAPNGFDYWGQGTQVTVSS | high polyreactivity
16 | PVQLVESGGGLVQAGGSLRLSCAASGRTVWNTMGWDRQSPGNERELVAAISYSGGTTYYADSVKGRFTISRDNAKNTVYLQMNSLKPEDTAVYYCNAVTYGWTAYYKGKRYDYWGQGTQVTVSS | high polyreactivity
17 | QVQLVESGGGLVQAGGSLRLSCAASGIIFHYYAMGWYRQAPGKERELVATISWDGGNTYYADSVKGRFTISRDNAKNSVYLKMNSLKPEDTAVYYCNVYDKAPAYDYWGQGTQVTVSS | low polyreactivity
18 | QVQIVESGGGVVQAGGSLRLICAASGSTFNPYAMGSYRQAPGKERELVAAIRGRSGRTYYADSVKGRFTISRDNAKNTVYLQMTSLIPEDTAVYYCAARFSEYRTHPSEVYYWGQGTQVTVSS | high polyreactivity
19 | QVQLVESGGGLVQAGGSLRLSCAASGRMFWSNAMGWYIQAPGKERELFAAIRNTGSTNYADSVKGRFTISRDNAKNTVYLQMNSLKPEDTAVYYCAAYKGSSKYDYWGQGTQVTVSS | high polyreactivity
20 | QVQLVESGGGLVQAGGSLRLSCAASGSTFLGNAMGWYRQAPGKERELVASIRWTTGSTYYADSVKGRFTISRDNAKNTVYLQMNSLKPEDTAVYYCAKGLYVQFDYWGLGTQVTVSS | low polyreactivity
21 | QDQLVESGGGLVHAGGSLRLSCAASVSIFVRNAMGWYRQAPGKERELVAADSVKGRFTISRDNAKNTVYLQMNSLKPEDTAVYYCNKDYIIRRGPIVYYGFDYWGQGTQVTVSS | low polyreactivity
22 | QVQLVESVGGLVQAGGSLRLSCAASGFIFSGNTMGWYRQAPGKERELVAAITSGGGRTYYADSVKGRFTISRDNAKNTVYLQMNSLKPEDTAVYYCNTAFVYEYDYWGQGTQVTVSS | high polyreactivity
23 | QVQLVESGGGLVQAGGSLRLSCAASGRTFQYYAMGWYRQAPGKERELVAAISSRGGSTYYADSVKGRFTISRDNAKNTVYLQMNSLKPEDTAVYYCAAYVLPRQRVRSDYWGQGTQVTVSS | high polyreactivity
24 | QVQLVESGGGLVQAGGSLSLSCASSGSIFVRNVMGWYRQAPWKERELVATIRTRGGSTSYADSVKGRFTISRDNAKNTVYLQMNSLTPEDTAVYYCNARLSYRSAWYYGGDRYDYWGQGTQVTVSS | high polyreactivity
25 | QVQLVESGGGLVQAGGSLRLSCAASGSTFSRNAMGWYRQAPGKERELVAAISYRGGSTYYADSVKGRFTISRDNAKNTVYLQMNSLKPEDTAVYYCNADVGWRAPDYGGYDYWGQGTQVTVSS | high polyreactivity
26 | QVQLVESGGGLVQAGGSLRLSCAASGFTSGYYAMGWYRQAPGKESELVAAIDWSDGGTYYADSVKGRFTISRDNAKNTVYLQMNSLKPEDTAVYYCATVRYVQITRDDYWGQGTQVTVSS | low polyreactivity
27 | QVQLVESGGGLVQAGRSLRLSCAASVFTFYHYAMGWYRQAPGKVRELVAAISNSGVSTYYADSVKGRFTISRDNAKITVYLQLNSLKPEDTAVYYCNAVYQSYHISGDDYWGQGTQVTVSS | high polyreactivity
28 | QVQLVESGGGLVQAGGSLRLSCAASGFIFSRYAMGWYRQAPGKERELVAAISDYGGRTYYADSVKGRFTISRDNAKNTVYLQMNSLKPEDTAVYYCAADLEGYYPYEYWGQGTKVTVSS | high polyreactivity
29 | QVQLVESCGGLVQAGGSLRLSCPASGSIFHVNVMGCYRQEPGKERELVAAITYSGGATYYADSVKGRFTISRDNAKNTVYLQMNSLKPEDTAVYYCAAYPYWFFPHYDSWGQGTLVTVSS | low polyreactivity
30 | QVQLVESCGGLVQAGGSLRLSCAASAWYAIGWYRQAPGKEREFVAAITFSGSSTYYADSVKGRFTISRDNAKNTVYLQMNSLKPEDTAVYYCNADWWEWGQGTQVTVSS | low polyreactivity
